Reference: publication doi:10.1101/2023.06.21.545984

Key:
[1] = molecular target: Acinetobacter baumannii 118362 Family 2A encapsulin shell protein (J517_0527) (Acinetobacter baumannii 118362); test: cryo-EM structure
[2] = molecular target: free Acinetobacter baumannii 118362 cysteine desulfurase (construct RB30, C-terminally His6-tagged, tag removed) (Acinetobacter baumannii 118362); test: SEC
[3] = molecular target: degraded free cysteine desulfurase that has lost the N-terminal CLD (Acinetobacter baumannii 118362); test: SEC

## Acinetobacter baumannii 118362 Family 2A encapsulin shell protein (J517_0527) (natural protein)
[1]
  stoichiometry N: 60 subunits

## Acinetobacter baumannii 118362 cysteine desulfurase (J517_0528), co-expressed from the four-gene operon (enzyme)
[1]
  stoichiometry N (CD cargo proteins per encapsulin shell): < 24

## free Acinetobacter baumannii 118362 cysteine desulfurase (construct RB30, C-terminally His6-tagged, tag removed) (enzyme)
[2]
  stoichiometry N: 2

## degraded free cysteine desulfurase that has lost the N-terminal CLD (domain or fragment)
[3]
  stoichiometry N: 2
